Where no end group is shown, it is not given here.
B1: Phage-698 (peptide)
peptide: YCAGHLPEYMMKCL
modifications: cysteine pairing not given here; also: displayed on phage by fusion to pIII, pIII and linker sequence not given here
B2: Phage-668 (peptide, not shown: large carriers)
peptide: YCDGHAQEFMSKCL
notes: Clonal phage supernatant of the Peptide-87 library
B3: Phage-667 (peptide, not shown: large carriers)
peptide: YCEGHSMQHMAKCL
notes: as for B2
B4: Phage-697 (peptide)
peptide: YCDGHSPMYIGKCL
modifications: cysteine pairing not given here; also: displayed on phage by fusion to pIII, pIII and linker sequence not given here
B5: Phage-664 (peptide, not shown: large carriers)
peptide: YCEGHAPEHMAKCL
notes: as for B2
B6: Phage-666 (peptide, not shown: large carriers)
peptide: YCEGHSPEYMSHCF
notes: as for B2
B7: Phage-669 (peptide, not shown: large carriers)
peptide: YCAGHLPEYIDKCL
notes: as for B2
B8: Phage-663 (peptide, not shown: large carriers)
peptide: YCEGHSAEYMWKCL
notes: as for B2
B9: Phage-662 (peptide, not shown: large carriers)
peptide: YCMGHLPQYMEKCL
notes: as for B2
B10: Phage-696 (peptide)
peptide: YCEGHAPQYIAKCL
modifications: cysteine pairing not given here; also: displayed on phage by fusion to pIII, pIII and linker sequence not given here
B11: Phage-665 (peptide, not shown: large carriers)
peptide: YCDGHAEQYMEKCL
notes: as for B2

What was measured:
[1] = biological target: T1, Anti-CD28 Fab (SEQ ID NOs: 696, 697); assay: phage ELISA on plate-bound anti-CD28 Fab, wells pre-incubated with CD28 antigen as competitor
T1 construct: Biotinylated and captured on neutravidin coated plates in the phage ELISA
T1 sequence (VH, as listed by the source, chain 1 of 2): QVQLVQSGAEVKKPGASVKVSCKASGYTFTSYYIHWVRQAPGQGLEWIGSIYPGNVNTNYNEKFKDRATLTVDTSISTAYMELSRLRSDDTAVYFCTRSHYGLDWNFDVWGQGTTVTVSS
T1 sequence (VL, as listed by the source, chain 2 of 2): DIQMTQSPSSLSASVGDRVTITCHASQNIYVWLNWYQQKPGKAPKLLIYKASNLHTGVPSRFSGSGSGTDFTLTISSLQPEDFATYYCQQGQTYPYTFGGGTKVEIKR
Description: (§1) After panning, phage infected bacteria were plated out and colonies picked into 96 well blocks. Clonal phage was then amplified and separated from bacterial cells via centrifugation.
(§2) Clonal phage were harvested as crude supematants and screened via standard ELISAs. […] Prior to the addition of clonal phage, wells were incubated with blocking buffer and CD28 antigen or blocking buffer alone. Without washing or aspirating, clonal phage supematants were then added to the wells and incubated for a short time. Wells were then washed followed by detection of bound phage using a horse radish conjugated anti-M13 antibody. Clonal phage of interest were then sent for sequence analysis.

[2] = biological target: T1, Anti-CD28 Fab (SEQ ID NOs: 696, 697); assay: phage ELISA; biotinylated anti-CD28 Fab on neutravidin plate, clonal phage supernatant, anti-M13 HRP detection;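 note: crude supernatants of single phage clones picked after panning were screened for binding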
[3] = biological target: T2, Anti-CD28 Fab (SEQ ID NOs: 696, 697); assay: phage binding ELISA on captured anti-CD28 Fab; competitor: CD28 antigen pre-incubated in the wells
T2 construct: In the phage ELISA the Fab was biotinylated and captured on neutravidin coated plates
T2 sequence (VH, as listed by the source, chain 1 of 2): as the sequence (VH, as listed by the source, chain 1 of 2) above
T2 sequence (VL, as listed by the source, chain 2 of 2): as the sequence (VL, as listed by the source, chain 2 of 2) above
Description: as §1, §2

[4] = biological target: T2, Anti-CD28 Fab (SEQ ID NOs: 696, 697); assay: phage binding ELISA; biotinylated anti-CD28 Fab on neutravidin plate, bound phage detected with anti-M13-HRP
Description: as §1, §2

[5] = biological target: Anti-CD28 Fab (SEQ ID NOs: 696, 697); assay: phage binding ELISA; biotinylated anti-CD28 Fab on neutravidin plate, clonal phage supernatant, anti-M13 HRP detection
Target sequence in this assay (VH, as listed by the source, chain 1 of 2): as the sequence (VH, as listed by the source, chain 1 of 2) above
Target sequence in this assay (VL, as listed by the source, chain 2 of 2): as the sequence (VL, as listed by the source, chain 2 of 2) above

[6] = biological target: Anti-CD28 Fab (SEQ ID NOs: 696, 697); assay: phage binding ELISA; captured anti-CD28 Fab pre-incubated with CD28 antigen as competitor, anti-M13 HRP detection
Target sequence in this assay (VH, as listed by the source, chain 1 of 2): as the sequence (VH, as listed by the source, chain 1 of 2) above
Target sequence in this assay (VL, as listed by the source, chain 2 of 2): as the sequence (VL, as listed by the source, chain 2 of 2) above

[7] = biological target: T3, Anti-CD28 Fab (SEQ ID NOs: 696, 697); assay: phage binding ELISA; biotinylated anti-CD28 Fab on neutravidin plate, clonal phage supernatant, anti-M13 HRP detection
T3 construct: Biotinylated and captured on neutravidin coated plates in the phage ELISA
T3 sequence (VH, as listed by the source, chain 1 of 2): as the sequence (VH, as listed by the source, chain 1 of 2) above
T3 sequence (VL, as listed by the source, chain 2 of 2): as the sequence (VL, as listed by the source, chain 2 of 2) above

[8] = biological target: T3, Anti-CD28 Fab (SEQ ID NOs: 696, 697); assay: phage binding ELISA on anti-CD28 Fab plate pre-incubated with CD28 antigen as competitor; anti-M13 HRP detection
Description: as §1, §2

| Binder | Anti-CD28 Fab signal in the presence of CD28 (phage binding ELISA) [1] | Anti-CD28 Fab signal (phage binding ELISA) [2] | Anti-CD28 Fab signal in the presence of CD28 (phage binding ELISA) [3] | Anti-CD28 Fab signal (phage binding ELISA) [4] | also measured |
| --- | --- | --- | --- | --- | --- |
| YCAGHIEEYMWKCL (Clonal phage of the Peptide-87 library) [Phage-680] | 0.06 | 2.05 |  |  |  |
| YCDGHLPEYQMKCL [Phage-686] |  |  | 0.08 | 2.05 |  |
| YCDGHLPAYMAKCL (Clonal phage of the Peptide-87 library) [Phage-672] | 0.12 | 2.06 |  |  |  |
| YCEGHAPEYMYKCL [Phage-685] |  |  | 0.07 | 2.05 |  |
| B1 |  |  |  |  | Anti-CD28 Fab (SEQ ID NOs: 696, 697) signal [5]: 2.03; Anti-CD28 Fab signal in the presence of CD28 [6]: 0.11 |
| YCDGHVGEYMQKCL [Phage-683] |  |  | 0.08 | 2.05 |  |
| YCEGHLPIYMDKCL (Clonal phage of the Peptide-87 library) [Phage-678] | 0.08 | 2.06 |  |  |  |
| YCEGHSPQYMSKCL [Phage-691] |  |  | 0.07 | 2.04 |  |
| YCEGHSAEYMNKCL (Clonal phage of the Peptide-87 library) [Phage-676] | 0.07 | 2.06 |  |  |  |
| YCQGHMPEYMDKCL (Clonal phage of the Peptide-87 library) [Phage-681] | 0.07 | 2.05 |  |  |  |
| YCEGHADIYMQKCL (Clonal phage of the Peptide-87 library) [Phage-675] | 0.07 | 2.06 |  |  |  |
| YCDGHAIEYMQKCL (Clonal phage of the Peptide-87 library) [Phage-679] | 0.07 | 2.05 |  |  |  |
| YCDGHLIEYMEKCL [Phage-688] |  |  | 0.06 | 2.04 |  |
| YCEGHSDEYMLKCL (Clonal phage of the Peptide-87 library) [Phage-673] | 0.07 | 2.06 |  |  |  |
| B2 |  |  |  |  | Anti-CD28 Fab signal (phage binding ELISA) [7]: 2.07; Anti-CD28 Fab signal in the presence of CD28 (phage binding ELISA) [8]: 0.12 |
| B3 |  |  |  |  | Anti-CD28 Fab signal (phage binding ELISA) [7]: 2.07; Anti-CD28 Fab signal in the presence of CD28 (phage binding ELISA) [8]: 0.08 |
| YCDGHAPQYMGKCL (Clonal phage of the Peptide-87 library) [Phage-677] | 0.08 | 2.06 |  |  |  |
| B4 |  |  |  |  | Anti-CD28 Fab (SEQ ID NOs: 696, 697) signal [5]: 2.03; Anti-CD28 Fab signal in the presence of CD28 [6]: 0.07 |
| YCEGHAPEYMMKCI (Clonal phage of the Peptide-87 library) [Phage-674] | 0.06 | 2.06 |  |  |  |

| Binder | Anti-CD28 Fab signal in the presence of CD28 (phage binding ELISA) [1] | Anti-CD28 Fab signal (phage binding ELISA) [2] | Anti-CD28 Fab signal in the presence of CD28 (phage binding ELISA) [3] | Anti-CD28 Fab signal (phage binding ELISA) [4] | also measured |
| --- | --- | --- | --- | --- | --- |
| YCDGHFREYMQKCL [Phage-692] |  |  | 0.06 | 2.04 |  |
| B5 |  |  |  |  | Anti-CD28 Fab signal (phage binding ELISA) [7]: 2.08; Anti-CD28 Fab signal in the presence of CD28 (phage binding ELISA) [8]: 0.1 |
| B6 |  |  |  |  | Anti-CD28 Fab signal (phage binding ELISA) [7]: 2.08; Anti-CD28 Fab signal in the presence of CD28 (phage binding ELISA) [8]: 0.09 |
| YCEGHAPQYIQKCL (Clonal phage of the Peptide-87 library) [Phage-670] | 0.07 | 2.07 |  |  |  |
| YCDGHELRYMAKCL (Clonal phage of the Peptide-87 library) [Phage-671] | 0.07 | 2.07 |  |  |  |
| YCEGHAIQYMSKCL [Phage-689] |  |  | 0.06 | 2.04 |  |
| B7 |  |  |  |  | Anti-CD28 Fab signal (phage binding ELISA) [7]: 2.07; Anti-CD28 Fab signal in the presence of CD28 (phage binding ELISA) [8]: 0.08 |
| YCDGHAPEYVMKCL (Clonal phage of the Peptide-87 library) [Phage-682] | 0.1 | 2.05 |  |  |  |
| B8 |  |  |  |  | Anti-CD28 Fab signal (phage binding ELISA) [7]: 2.08; Anti-CD28 Fab signal in the presence of CD28 (phage binding ELISA) [8]: 0.09 |
| YCEGHAPQHMDKCL [Phage-690] |  |  | 0.08 | 2.04 |  |
| YCLGHAPQYIQKCL [Phage-693] |  |  | 0.14 | 2.04 |  |
| B9 |  |  |  |  | Anti-CD28 Fab signal (phage binding ELISA) [7]: 2.08; Anti-CD28 Fab signal in the presence of CD28 (phage binding ELISA) [8]: 0.08 |
| YCDGHSAQYMHKCL [Phage-684] |  |  | 0.06 | 2.05 |  |
| YCDGHASEYMMKCL [Phage-687] |  |  | 0.06 | 2.05 |  |
| B10 |  |  |  |  | Anti-CD28 Fab (SEQ ID NOs: 696, 697) signal [5]: 2.03; Anti-CD28 Fab signal in the presence of CD28 [6]: 0.08 |
| YCDGHSSEYMWKCL [Phage-694] |  |  | 0.06 | 2.03 |  |
| B11 |  |  |  |  | Anti-CD28 Fab signal (phage binding ELISA) [7]: 2.08; Anti-CD28 Fab signal in the presence of CD28 (phage binding ELISA) [8]: 0.07 |
| YCSGHLPEYMSKCL [Phage-695] |  |  | 0.09 | 2.03 |  |

Reference: US20260242478A1 (published 2026)
